The data set in a line: label from the status in PepcDB records.
On to “MLKQRIITALLLVPVALYGVFMLPLWGFALFIQGVLMLGAWEWSPLMGVRRISARIAYTLFVGAIIGVLSWLAPYEHLWEGGELSKLIYYTILAGGVWWVVALAMIVNYPSSRRMWSRTRAIVGVFGLLIFIPTWAALVTVRSIDIDESRFFGGWVVLFILLLVWAADVGAYFAGVRYGRNKMMPAVSPGKTMEGLCGGVTLAFVVMMVVAHWTKVPADQFTGYYLTGLFTVVASVFGDLNESMFKRSAGVKDSGSILPGHGGILDRIDSLTAAVPIFTLAYLEFLH”, for which the protein production result is “failed”.

For “MTIYHFVGIKGSGMSALAQILHDKGFQVQGSDVDKYFFTQKALEEKQIPIMTFSADNIQEGLTIIAGNAFPDTHEEIERALELGLSVIRYHKFLGQLIDGYTSIAITGSHGKTSTTGLLSHVVGAIRPTSYLIGDGTGSGTKDAEYFALEACEYQRHFLAYKPTYAIMTNIDWDHPDYFKSVDDVFNAFETLGKQVKKAVFALGDDAELRKLTLDIPIIYFGFGEENEFQAKNVIKETTGTKFDVYHREEFLSSFEIPAYGDHNVLNALSVIALCDYEGLPVEDVKNELKTFEGVKRRFSITEKGNQVLVDDYAHHPSEIRATVNAARQKYPDKKVVAVFQPHTFTRTRTFLQGFADSLNLADEVYLCDIFGSAREKTGNLTIADLAHKTKGNHIIKEEHTEELLKYPEAVILFMGAGDVQKFQAAYEKVLDHEFLTEADLKKSAIN”, the protein production entry is “failed”.

With “MSTGATIVIDLGKTLSKVSLWDLDGRMLDRQVRPSIPLEIDGIRRLDAPDTGRWLLDVLSRYADHPVTTIVPVGHGAGIAALTDGRLAFPPLDYEQSIPEAVMADYRSQRDPFARTGSPALPDGLNIGSQLWWLDQLHPDVMANATLLPWAQYWAWFLTGRAVSEVTSLGCHSDLWDPQDGDFSPMAKRLGWAARFAPIVRAGDTVGALLPAIAERTGLSPDVQVLAGLHDSNAALLAARGFAEIADNEATVLSTGTWFIAMRLPATPVDTATLPEARDCLVNVDVHGRPVPSARFMGGREIETLIEIDTRRVDIKPDQPALLAAVPEVLRHGRMILPTLMRGFGPYPHGRFAWINRPEDWFERRAAACLYAALVADTALDLIGSTGRILVEGRFAEADVFVRALASLRPDCAVYTANAHNDVSFGALRLIDPGLRPQGELVRIEPLDTGSWADLDTYRNRWQAEVEAAKVEPITLEHHHHHH”, the protein production entry is reported as “not failed”.

For “MWSWDVECDTCAICRVQVMDACLRCQAENKQEDCVVVWGECNHSFHNCCMSLWVKQNNRCPLCQQDWVVQRIGK”, the protein production entry is recorded as “not failed”.

With “MLKQIRPLYLLLYLTPLMFDIILLYTYLDNGIIYWLDSNYPFSPLILLRKILFYYWNDPFFPGAPLFYSQDSLFMGIIIFLLYNIFHFSLELSEFIYLLLFIYLSQVGFVKLLNIIFEILEKRYSSYFTLIAGLLGGFIYSWGFYSYTPPILGVNYPFFIFYMLFPLVLYFSIKYIFKEKVISFSLIILYLILASGTLFSEFTYLLWSIVLYLFTVVPIWLLSRKPSFVQFTVKNLVIALIVIVAGLEQLYQTYNASIGAYQVGVHGEFLGKPIVIYETEAQYKNFPLSSFISLYSPEKYEIIGVLIFVLIFATILFIKGKTGKFFAPLLFLLLIIGGLSTGIINVLPLYSLHSTPIGFIAIGLMYSIQYIFSGFPVSFVSSLIIGYTLLYILEYLGKRRNYIKILFILIILLLSSSYIYSFRAGEVHPEIRAFNLPVNATNIFYPPPELVSVGNYLSVHDEFYNVIEFPMQYAAGMYDNNGTKAVWYTIYPLSDYIMGQVIKSPALANNAIIKSLANSAIYPIYKYFPAFNITNITNYFVLLGAKYIVLNKQEYPGPGVPLGYAGGYPWNYTKFIEALARTPNITLVMENSYYNVYMINLNVSLLYPSEGLAENLSSDQLFFLYANNMLKAQKQSVIYGLGAINITNISGVHIRVVNDYCNEVYEIQVNASRPFYLVFDEGYSPLWEVTINGEINTHHYIANGYANAWLMPAGNYVATLKLSILQTVHITYLLVFLGFIILVLIYVLQRFKIFRYFKNY”, the protein production entry was “failed”.

On to “SLKKIVESTTFPRTKQSITEDLKALGLKKGMTVLVHSSLSSIGWVNGGAVAVIQALIDVVTEEGTIVMPSQSVELSDPKEWGNPPVPEEWWDIIRESMPAYNSNYTPTTRGMGQIVELFRSYPEVKRSNHPNYSFVAWGKHKNKILNQHPLEFGLGEQSPLGKLYIRESYVLLLGADFDSSTCFHLAEYRIPYQKIINRGAPIIVEGKRVWKEYKELEFREELFQEVGQAFEAEHNMKVGKVGSANCRLFSLTEAVDFAEKWFINNDSKNIKK”, for which the protein production result is listed as “not failed”.

For the sequence “MKLALVNRQVILPESGTESFQCHASTLVRLPCGTLVAAWFAGLREGSEDTAIWLSRYEHNIWTTPQRVAAREGEAHWNPVLFYPSDKLWLFYKVGSDVHVWKTWFITSSDRGFTWSTPAPLVNDDILPRGPVKNKLLLASNGAWIAPGSIESPERWRAFVDRSSDEGKHWSISFVPLEPDNAISGTNVALWDGIKKGRLWECCLENLLRWDGVIQPTLWESSPGHIHMLLRSTRGAIFRSDSIDYGATWSVARATSLPNNNSGIDLVSMQDGTLILALNPVNGNWGKRYPLSLIASQDNGESWLPLLDLESDHGEYSYPAIISEGGIVHITYTWNRKNIVYCRLQTVLEHHHHHH”, the protein production entry is listed as “failed”.

For “MTKNAASKARIAYVCTECGTEYSKWQGQCTECGTWNCLSQITLGNAGSVKNPTMKHGNWTGQLDPPKITALKDVQHSEQARISTGIGEFDRVLGGGLVAGAVVLIGGDPGIGKSTLLLQALARMASNLPTLYVTGEESLAQVAGRAVRLDLPLEGLNALAETGIESILQHASSARPRLIVADSVQTLWTEALTAAPGSVSQVRESAAQLVRYAKETGTTVFLVGHVTKEGGIAGPRVLEHMVDAVLYFEGESGSRFRLLRAFKNRFGAVNELGVFAMSEKGLKEVANPSAIFLSGRNSDQPGSCVMVTREGTRPLMVEVQALVDTSPLSNPRRVTVGLEQNRLAMLLAVLHRHGNVLVGDQDVFINIVGGIRVQETAADLPVLLAVRSSLCNRALPEKTIAFGEVGLSGEIRPVPNGEERLREAATHGFKHAIVPKANAPKSAIKDMQIIAVERLDQALEASY”, the protein production result is listed as “failed”.

“MDAVKKAILGEVLEEEEAYEVMRALMAGEVSPVRAAGLLVALSLRGERPHEIAAMARAMREAARPLRVHRRPLLDIVGTGGDGKGLMXLSTLAALVAAAGGVAVAKHGXRAASSRAGSADLLEALGVDLEAPPERVGEAIEELGFGFLFARVFHPAMRHVAPVRAELGVRTVFXLLGPLTXPAGADAYVLGVFSPEWLAPMAEALERLGARGLVVHGEGADELVLGEXRVVEVGKGAYALTPEEVGLKRAPLEALKGGGPEEXAALARRLLKGEEKGPLADAVALAAGAGFYAAGKTPSLKEGVALAREVLASGEAYLLLERYVAFLRA”: the protein production result is “not failed”.

Consider “MVVNTLGRYFARRFVIASLGVFFGLFVLLVFVDYVDLLRRAGGLAVSAFYVAQASFCRVPQLLERLLPFCILIGGMTCYLALSRSLELVVARAAGLSAWEFISPALWSAIAIGIFATTVFNPLSAHMQERAKQMEAEMFGENTGGLQDANGFWMNQVSPDGQAIINAARSQQQGAVLTGITVFRFEPDFQFKDRIEAREAVLEPGHWLLKNVRRYTMDGAPVDQDTLELPTSLTLAQVRNSFATPESVSFWQLPTYIKSSENSGFATAGYRLQYHKLLAKPFLLAAMVMLAASVSLRFFRFGGVQKMVLSGVAAGFLLYILSKVTEDLSKAELMHPLAAAWLPVCVGGLAGFLALLYQEDG”, for which the protein production result was “failed”.

On to “MEVPKEQIATLIEHGLYDSAEMLGCFLVSSPTVSAETSPQLKAENLILLGDALFHQREHRRAIHTYKQALHHYTRIPKQSSGISRSSLSLSTRSSVNASSISAINENEVRFKIASSHFALNETKAAIAEMESVKTRSLEMNILMAKLHRNSGYNRGAIAFYKECLRQCPYVLEAVIGLAELGVSAKDIISSFTQTSNRSAKVSLDQIDPTRWLQRYVEAQCCVASHAYKGALELFAELLQRFPNNVHLLTETAKVEAIIGKNDEAIMRFEKVRSIDPYTLTSMDEYAMLLQIKCDYSRLNKLVHDLLSVDHTRAEVFVALSVLWERKDARTALSYAEKSIRVDERHIPGYIMKGNLLLQAKRPEAAAIAFRAAQNLRSDLRSYQGLVHSYLAFGKTKEALYTAREAMNAMPQSAKALKLVGDVHAFTSSGREKAKKFYESGLRLEPGYLGAVLALAELHLMEGRNGDAVSLLERYLKDYADDSLHVKLAQVFAATNMLQDSLSHFQAALRINPQNEAAKKGLDRLEKQMKGIDPDATDENDENDVEDVDGDTEEAELM”, for which the protein production entry is reported as “failed”.

For the sequence “MGIHKPKFYAVRAGRDKGVFSSWEECRKAIYGFSGAVYRSFPTLEEAQAWFKGETLSDPLKAEDDSLRDDRTEYDVYTDGSYVNGQYAWAYAFVKDGKVHYEDADVGKNPAAATMRNVAGEIAAALYAVKKASQLGVKIRILHDYAGIAFWATGEWKAKNEFTQAYAKLMNQYRGIYSFEKVKAHSGNEFNDYVDMKAKSALGIRDLEHHHHHH”, the protein production entry is reported as “failed”.

On to “MSEENRAVVSRMTEEDVRQLIKRKDDIEEQIKAYYDMLESQAGVGMDGPLVDVEGFPRADVDLYKVRTARHSISCLQNDHKAIMVEIEEALHKLHATARVTHEQDDTQMESSGQTVETPPPFALVDAVTHGSPAAQAGLHVGDQIMEFGSVNTQNFRNLRDIASVVQHSEGKSLRVGVFRNGQEVHLNLTPQQWSGRGLLGCNIVPLHR”, for which the protein production result is “failed”.

With “MEKMLSTYIEEAMEFYAIGKGADFKAIIEKGIASCMTTYSTYDRELYKAYALLATYLSNHAFKIIKSRPAFQAMAINCFDQLDSLRQQHDPHLQVTKGFLWMLSSSRAQDADALLISVLRNHPKNILALIGRACLAYNRQDYIGALGYFKSVLLIQPQGMADVWVGIGHCFWKMGELEKAQLSFQIALEHNGQCLNAALALALVKFEHNDEQSYQDGKMLLTAAYKENNKNPDLLSILAGMYYADGNHKLVWSFAGNAIKFTANKHIESRNYFQIAKSYHATGQFESAKKYYLLSAKSAPDGYILPLVGVAQMYLHEGELNRSKAFLESFLTSEPDEPVVMDLLAKIYLEYKCPEKIDKAIEMLVKVVESASYHQNTNSWLNLAFAYEQKRLWAHGVNAYQKAIDIYLSQGHQIPIEWLNNLASSQLMAKMPEKALNTLDDALSKCRVMNSDNKTTNLLSLQYNRGLVLEELHMFTLAAENYKSITKEYSSYHDCYLRLGVMAIQKNNHTQAIEHLKDILVEDNLNMTARTYMGDCFKGLSLDKFATFNYNMILARQSKFTNTYVSMAMGNFCLEKLQNWIAEGNFRAARKQQEKALQCFGKILDCNPKNLWAANGIGAVLSSCNNLSAGGAIFKQIIECGNKCIPAIINSAHIALVSGQYRLAIQTYERCLKDHLPKNRVDVMHCLAKALYDNGDARKAKMWLLKVRHLVPHDPFVIFNLGLAIKKETEQALALPRPQLDELMGLDGLLKVAFKLFCHINLNHPKISVRVSAKYAEDCQNLMTELIAKKRQASESHAMEEDRVQLQKQRYRDHIEHQRQQELQREEEERVRRENLKIQRKEVLERTRKIISAPLAPDVPKKSAGNGRAKKNQENGDGKAKKSGPPKKKTRKRAAGKEQEDIEPLKKPKSKEFIDTDDDNSE”, the protein production result is “failed”.

For the origin of these results see a protein production outcome set (Wang et al. 2014).
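Further: failed if final PepcDB status was selected cloned or expressed and not failed if soluble or beyond.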
